The labels stand for the following.
B1: library; numbered along this chain (parent)
chain: MEVVDPQQLGMFTEGELMSVGMDTFIHRIDSTEVIYQPRRKRAKLIGKYLMGDLLGEGSYGKVKEVLDSETLCRRAVKILKKKKLRRIPNGEANVKKEIQLLRRLRHKNVIQLVDVLYNEEKQKMYMVMEYCVCGMQEMLDSVPEKRFPVCQAHGYFCQLIDGLEYLHSQGIVHKDIKPGNLLLTTGGTLKISDLGVAEALHPFAADDTCRTSQGSPAFQPPEIANGLDTFSGFKVDIWSAGVTLYNITTGLYPFEGDNIYKLFENIGKGSYAIPGDCGPPLSDLLKGMLEYEPAKRFSIRQIRQHSWFRKKHPPAEAPVPIPPSPDTKDRWRSMTVVPYLEDLHGADEDEDLFDIEDDIIYTQDFTVPGQVPEEEASHNGQRRGLPKAVCMNGTEAAQLSTKSRAEGRAPNPARKACSASSKIRRLSACKQQ

± gives the uncertainty stated by the source.

Variants of B1 are the subject of the series. The series can be described thus: STK11 functional score (HeLa growth suppression), rescaled enrichment; synonymous median = 1, nonsense median = 0 (normalised score). As to conditions: with HeLa; variant type: missense. The method, then:
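Deep mutational scan (TileSeq/POPCode codon randomisation) of full-length codon-optimised STK11 cDNA integrated at a Bxb1 landing pad (AAVS1) in HeLa cells. Restoring functional STK11 suppresses HeLa proliferation. Variant frequencies were measured by NGS before and after about two weeks of growth. The error-corrected enrichment log-ratio was rescaled so that synonymous median = 1 and nonsense median = 0, scores above 1 were compressed, and codon-level and three biological replicate scores were combined; error is the bootstrapped standard error. Scale: synonymous median = 1, nonsense median = 0; below 0.5 = damaging.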
Consider MEVVDPQQLGMFTEGELMSVGMDTFIHRIDSTEVIYQPRRKRAKLIGKYLMGDLLGEGSYGKVKEVLDSETLCRVAVKILKKKKLRRIPNGEANVKKEIQLLRRLRHKNVIQLVDVLYNEEKQKMYMVMEYCVCGMQEMLDSVPEKRFPVCQAHGYFCQLIDGLEYLHSQGIVHKDIKPGNLLLTTGGTLKISDLGVAEALHPFAADDTCRTSQGSPAFQPPEIANGLDTFSGFKVDIWSAGVTLYNITTGLYPFEGDNIYKLFENIGKGSYAIPGDCGPPLSDLLKGMLEYEPAKRFSIRQIRQHSWFRKKHPPAEAPVPIPPSPDTKDRWRSMTVVPYLEDLHGADEDEDLFDIEDDIIYTQDFTVPGQVPEEEASHNGQRRGLPKAVCMNGTEAAQLSTKSRAEGRAPNPARKACSASSKIRRLSACKQQ [R75V], for which the STK11 functional score was 1.27 ± 0.37.
Regarding MEVVDPQQLGMFTEGELMSVGMDTFIHRIDSTEVIYQPRRKRAKLIGKYLMGDLLGEGSYGKVKEVLDSETLCRTAVKILKKKKLRRIPNGEANVKKEIQLLRRLRHKNVIQLVDVLYNEEKQKMYMVMEYCVCGMQEMLDSVPEKRFPVCQAHGYFCQLIDGLEYLHSQGIVHKDIKPGNLLLTTGGTLKISDLGVAEALHPFAADDTCRTSQGSPAFQPPEIANGLDTFSGFKVDIWSAGVTLYNITTGLYPFEGDNIYKLFENIGKGSYAIPGDCGPPLSDLLKGMLEYEPAKRFSIRQIRQHSWFRKKHPPAEAPVPIPPSPDTKDRWRSMTVVPYLEDLHGADEDEDLFDIEDDIIYTQDFTVPGQVPEEEASHNGQRRGLPKAVCMNGTEAAQLSTKSRAEGRAPNPARKACSASSKIRRLSACKQQ [R75T], the STK11 functional score is 0.85 ± 0.23.
The value for MEVVDPQQLGMFTEGELMSVGMDTFIHRIDSTEVIYQPRRKRAKLIGKYLMGDLLGEGSYGKVKEVLDSETLCRNAVKILKKKKLRRIPNGEANVKKEIQLLRRLRHKNVIQLVDVLYNEEKQKMYMVMEYCVCGMQEMLDSVPEKRFPVCQAHGYFCQLIDGLEYLHSQGIVHKDIKPGNLLLTTGGTLKISDLGVAEALHPFAADDTCRTSQGSPAFQPPEIANGLDTFSGFKVDIWSAGVTLYNITTGLYPFEGDNIYKLFENIGKGSYAIPGDCGPPLSDLLKGMLEYEPAKRFSIRQIRQHSWFRKKHPPAEAPVPIPPSPDTKDRWRSMTVVPYLEDLHGADEDEDLFDIEDDIIYTQDFTVPGQVPEEEASHNGQRRGLPKAVCMNGTEAAQLSTKSRAEGRAPNPARKACSASSKIRRLSACKQQ [R75N] was -0.061 ± 0.19.
Consider MEVVDPQQLGMFTEGELMSVGMDTFIHRIDSTEVIYQPRRKRAKLIGKYLMGDLLGEGSYGKVKEVLDSETLCRSAVKILKKKKLRRIPNGEANVKKEIQLLRRLRHKNVIQLVDVLYNEEKQKMYMVMEYCVCGMQEMLDSVPEKRFPVCQAHGYFCQLIDGLEYLHSQGIVHKDIKPGNLLLTTGGTLKISDLGVAEALHPFAADDTCRTSQGSPAFQPPEIANGLDTFSGFKVDIWSAGVTLYNITTGLYPFEGDNIYKLFENIGKGSYAIPGDCGPPLSDLLKGMLEYEPAKRFSIRQIRQHSWFRKKHPPAEAPVPIPPSPDTKDRWRSMTVVPYLEDLHGADEDEDLFDIEDDIIYTQDFTVPGQVPEEEASHNGQRRGLPKAVCMNGTEAAQLSTKSRAEGRAPNPARKACSASSKIRRLSACKQQ [R75S], for which the STK11 functional score came out at 0.619 ± 0.16.
MEVVDPQQLGMFTEGELMSVGMDTFIHRIDSTEVIYQPRRKRAKLIGKYLMGDLLGEGSYGKVKEVLDSETLCRWAVKILKKKKLRRIPNGEANVKKEIQLLRRLRHKNVIQLVDVLYNEEKQKMYMVMEYCVCGMQEMLDSVPEKRFPVCQAHGYFCQLIDGLEYLHSQGIVHKDIKPGNLLLTTGGTLKISDLGVAEALHPFAADDTCRTSQGSPAFQPPEIANGLDTFSGFKVDIWSAGVTLYNITTGLYPFEGDNIYKLFENIGKGSYAIPGDCGPPLSDLLKGMLEYEPAKRFSIRQIRQHSWFRKKHPPAEAPVPIPPSPDTKDRWRSMTVVPYLEDLHGADEDEDLFDIEDDIIYTQDFTVPGQVPEEEASHNGQRRGLPKAVCMNGTEAAQLSTKSRAEGRAPNPARKACSASSKIRRLSACKQQ [R75W]: the STK11 functional score is 0.21 ± 0.14.
For the variant MEVVDPQQLGMFTEGELMSVGMDTFIHRIDSTEVIYQPRRKRAKLIGKYLMGDLLGEGSYGKVKEVLDSETLCRYAVKILKKKKLRRIPNGEANVKKEIQLLRRLRHKNVIQLVDVLYNEEKQKMYMVMEYCVCGMQEMLDSVPEKRFPVCQAHGYFCQLIDGLEYLHSQGIVHKDIKPGNLLLTTGGTLKISDLGVAEALHPFAADDTCRTSQGSPAFQPPEIANGLDTFSGFKVDIWSAGVTLYNITTGLYPFEGDNIYKLFENIGKGSYAIPGDCGPPLSDLLKGMLEYEPAKRFSIRQIRQHSWFRKKHPPAEAPVPIPPSPDTKDRWRSMTVVPYLEDLHGADEDEDLFDIEDDIIYTQDFTVPGQVPEEEASHNGQRRGLPKAVCMNGTEAAQLSTKSRAEGRAPNPARKACSASSKIRRLSACKQQ [R75Y], the STK11 functional score turned out to be 1.5 ± 0.23.
The value for MEVVDPQQLGMFTEGELMSVGMDTFIHRIDSTEVIYQPRRKRAKLIGKYLMGDLLGEGSYGKVKEVLDSETLCRRHVKILKKKKLRRIPNGEANVKKEIQLLRRLRHKNVIQLVDVLYNEEKQKMYMVMEYCVCGMQEMLDSVPEKRFPVCQAHGYFCQLIDGLEYLHSQGIVHKDIKPGNLLLTTGGTLKISDLGVAEALHPFAADDTCRTSQGSPAFQPPEIANGLDTFSGFKVDIWSAGVTLYNITTGLYPFEGDNIYKLFENIGKGSYAIPGDCGPPLSDLLKGMLEYEPAKRFSIRQIRQHSWFRKKHPPAEAPVPIPPSPDTKDRWRSMTVVPYLEDLHGADEDEDLFDIEDDIIYTQDFTVPGQVPEEEASHNGQRRGLPKAVCMNGTEAAQLSTKSRAEGRAPNPARKACSASSKIRRLSACKQQ [A76H] was 0.362 ± 0.17; that for MEVVDPQQLGMFTEGELMSVGMDTFIHRIDSTEVIYQPRRKRAKLIGKYLMGDLLGEGSYGKVKEVLDSETLCRRMVKILKKKKLRRIPNGEANVKKEIQLLRRLRHKNVIQLVDVLYNEEKQKMYMVMEYCVCGMQEMLDSVPEKRFPVCQAHGYFCQLIDGLEYLHSQGIVHKDIKPGNLLLTTGGTLKISDLGVAEALHPFAADDTCRTSQGSPAFQPPEIANGLDTFSGFKVDIWSAGVTLYNITTGLYPFEGDNIYKLFENIGKGSYAIPGDCGPPLSDLLKGMLEYEPAKRFSIRQIRQHSWFRKKHPPAEAPVPIPPSPDTKDRWRSMTVVPYLEDLHGADEDEDLFDIEDDIIYTQDFTVPGQVPEEEASHNGQRRGLPKAVCMNGTEAAQLSTKSRAEGRAPNPARKACSASSKIRRLSACKQQ [A76M] was -0.216 ± 0.42; that for MEVVDPQQLGMFTEGELMSVGMDTFIHRIDSTEVIYQPRRKRAKLIGKYLMGDLLGEGSYGKVKEVLDSETLCRRFVKILKKKKLRRIPNGEANVKKEIQLLRRLRHKNVIQLVDVLYNEEKQKMYMVMEYCVCGMQEMLDSVPEKRFPVCQAHGYFCQLIDGLEYLHSQGIVHKDIKPGNLLLTTGGTLKISDLGVAEALHPFAADDTCRTSQGSPAFQPPEIANGLDTFSGFKVDIWSAGVTLYNITTGLYPFEGDNIYKLFENIGKGSYAIPGDCGPPLSDLLKGMLEYEPAKRFSIRQIRQHSWFRKKHPPAEAPVPIPPSPDTKDRWRSMTVVPYLEDLHGADEDEDLFDIEDDIIYTQDFTVPGQVPEEEASHNGQRRGLPKAVCMNGTEAAQLSTKSRAEGRAPNPARKACSASSKIRRLSACKQQ [A76F] was 0.0284 ± 0.091.
The value for MEVVDPQQLGMFTEGELMSVGMDTFIHRIDSTEVIYQPRRKRAKLIGKYLMGDLLGEGSYGKVKEVLDSETLCRRLVKILKKKKLRRIPNGEANVKKEIQLLRRLRHKNVIQLVDVLYNEEKQKMYMVMEYCVCGMQEMLDSVPEKRFPVCQAHGYFCQLIDGLEYLHSQGIVHKDIKPGNLLLTTGGTLKISDLGVAEALHPFAADDTCRTSQGSPAFQPPEIANGLDTFSGFKVDIWSAGVTLYNITTGLYPFEGDNIYKLFENIGKGSYAIPGDCGPPLSDLLKGMLEYEPAKRFSIRQIRQHSWFRKKHPPAEAPVPIPPSPDTKDRWRSMTVVPYLEDLHGADEDEDLFDIEDDIIYTQDFTVPGQVPEEEASHNGQRRGLPKAVCMNGTEAAQLSTKSRAEGRAPNPARKACSASSKIRRLSACKQQ [A76L] was -0.332 ± 0.077.
The value for MEVVDPQQLGMFTEGELMSVGMDTFIHRIDSTEVIYQPRRKRAKLIGKYLMGDLLGEGSYGKVKEVLDSETLCRRQVKILKKKKLRRIPNGEANVKKEIQLLRRLRHKNVIQLVDVLYNEEKQKMYMVMEYCVCGMQEMLDSVPEKRFPVCQAHGYFCQLIDGLEYLHSQGIVHKDIKPGNLLLTTGGTLKISDLGVAEALHPFAADDTCRTSQGSPAFQPPEIANGLDTFSGFKVDIWSAGVTLYNITTGLYPFEGDNIYKLFENIGKGSYAIPGDCGPPLSDLLKGMLEYEPAKRFSIRQIRQHSWFRKKHPPAEAPVPIPPSPDTKDRWRSMTVVPYLEDLHGADEDEDLFDIEDDIIYTQDFTVPGQVPEEEASHNGQRRGLPKAVCMNGTEAAQLSTKSRAEGRAPNPARKACSASSKIRRLSACKQQ [A76Q] was 0.447 ± 0.14; that for MEVVDPQQLGMFTEGELMSVGMDTFIHRIDSTEVIYQPRRKRAKLIGKYLMGDLLGEGSYGKVKEVLDSETLCRRIVKILKKKKLRRIPNGEANVKKEIQLLRRLRHKNVIQLVDVLYNEEKQKMYMVMEYCVCGMQEMLDSVPEKRFPVCQAHGYFCQLIDGLEYLHSQGIVHKDIKPGNLLLTTGGTLKISDLGVAEALHPFAADDTCRTSQGSPAFQPPEIANGLDTFSGFKVDIWSAGVTLYNITTGLYPFEGDNIYKLFENIGKGSYAIPGDCGPPLSDLLKGMLEYEPAKRFSIRQIRQHSWFRKKHPPAEAPVPIPPSPDTKDRWRSMTVVPYLEDLHGADEDEDLFDIEDDIIYTQDFTVPGQVPEEEASHNGQRRGLPKAVCMNGTEAAQLSTKSRAEGRAPNPARKACSASSKIRRLSACKQQ [A76I] was 1.4 ± 0.15.
For the variant MEVVDPQQLGMFTEGELMSVGMDTFIHRIDSTEVIYQPRRKRAKLIGKYLMGDLLGEGSYGKVKEVLDSETLCRRGVKILKKKKLRRIPNGEANVKKEIQLLRRLRHKNVIQLVDVLYNEEKQKMYMVMEYCVCGMQEMLDSVPEKRFPVCQAHGYFCQLIDGLEYLHSQGIVHKDIKPGNLLLTTGGTLKISDLGVAEALHPFAADDTCRTSQGSPAFQPPEIANGLDTFSGFKVDIWSAGVTLYNITTGLYPFEGDNIYKLFENIGKGSYAIPGDCGPPLSDLLKGMLEYEPAKRFSIRQIRQHSWFRKKHPPAEAPVPIPPSPDTKDRWRSMTVVPYLEDLHGADEDEDLFDIEDDIIYTQDFTVPGQVPEEEASHNGQRRGLPKAVCMNGTEAAQLSTKSRAEGRAPNPARKACSASSKIRRLSACKQQ [A76G], the STK11 functional score amounted to 1.09 ± 0.1.
The value for MEVVDPQQLGMFTEGELMSVGMDTFIHRIDSTEVIYQPRRKRAKLIGKYLMGDLLGEGSYGKVKEVLDSETLCRRCVKILKKKKLRRIPNGEANVKKEIQLLRRLRHKNVIQLVDVLYNEEKQKMYMVMEYCVCGMQEMLDSVPEKRFPVCQAHGYFCQLIDGLEYLHSQGIVHKDIKPGNLLLTTGGTLKISDLGVAEALHPFAADDTCRTSQGSPAFQPPEIANGLDTFSGFKVDIWSAGVTLYNITTGLYPFEGDNIYKLFENIGKGSYAIPGDCGPPLSDLLKGMLEYEPAKRFSIRQIRQHSWFRKKHPPAEAPVPIPPSPDTKDRWRSMTVVPYLEDLHGADEDEDLFDIEDDIIYTQDFTVPGQVPEEEASHNGQRRGLPKAVCMNGTEAAQLSTKSRAEGRAPNPARKACSASSKIRRLSACKQQ [A76C] was 1.32 ± 0.13.

The record behind these values is the supplement of paper PMC12338614.
